Measurements: patent publication CN108635579A (UNIV JINAN, dated 2018)

What was measured:
[1] = biological target: T1, 重组人碱性成纤维细胞生长因子(bFGF) (human, UniProt P09038 143-288, limits assumed); assay: cell-based or functional assay
T1 construct: Bought protein; also called 重组人bFGF; bFGF抗原

[2] = biological target: T1, 重组人碱性成纤维细胞生长因子(bFGF); assay: SPR, bFGF immobilised on the chip, nanobody 3.125-200 nM in flow

T1 sequence (P09038 143-288 limits assumed): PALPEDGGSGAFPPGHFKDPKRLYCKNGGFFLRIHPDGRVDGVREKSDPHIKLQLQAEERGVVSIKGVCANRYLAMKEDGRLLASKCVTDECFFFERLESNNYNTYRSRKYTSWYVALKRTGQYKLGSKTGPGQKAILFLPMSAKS

| Kd [2] [nM] | Molecule | other results |
| --- | --- | --- |
|  | 阳性对照FGFR (receptor) | 最高增值抑制率, A375细胞 (CCK-8) [1]: 25.3%; 最高增值抑制率, B16-F10细胞 (CCK-8) [1]: 22.1%; 最高增值抑制率, B16细胞 (CCK-8) [1]: 27.1% |
| 12.4 | 抗bFGF纳米抗体 Nb5 (VHH, Alpaca nanobody; Nickel-purified, anti-Flag detected; also called Nb bFGF) VHH: LQESGGGLVQAGGSLRLSCAASGRTFSSGAMGWFRQAPGKEPEFVATITWDGGTTYYADSVKGRYTISRDNAKNTVYLQMNDLKPEDTAVYSCAARSYSEAYYLIGSSDYNYWGQGTQVTVSS |  |
| 10.3 | 抗bFGF纳米抗体 Nb6 (VHH, Alpaca nanobody; Nickel-purified, anti-Flag detected; also called Nb bFGF) VHH: LQESGGDLVQPGGSLRLSCEVSGSNFSINDMGWYRQAPGKRREVVAGISSVGRTMYGDPVKGRFTISRDNAKNMVYLQMNRLKPEDTAVYYCHLYGDYRGTGFWGKGTQVTVSS |  |
| 318 | 抗bFGF纳米抗体 Nb2 (VHH, Alpaca nanobody; Nickel-purified, anti-Flag detected; also called Nb bFGF) VHH: LQESGGDLVQPGGSLRLSCEVSGSNFSINDMGWYRQAPGKRREVVAGISSVGRAMYADPVKGRFTISRDNAKNMVYLQMNRLKPEDTAVYYCYLYGDYRGTGFWGKGTQVTVSS |  |
| 11.3 | 抗bFGF纳米抗体 Nb1 (VHH, Expressed from pET22b in E. coli, purified on a nickel column and detected with an anti-Flag antibody; also called Nb bFGF) VHH: LQESGGDLVQPGGSLRLSCEVSGSNFSNNDMGWYRQAPGKQREVVAGISSVGRTMYGDPVKGRFTISRDNAKNMVYLQMNRLKAKDTAVYYCHLYGDYRGTGFWGKGTQVTVSS |  |
| 5.37 | 抗bFGF纳米抗体 Nb3 (VHH, Alpaca nanobody; Nickel-purified, anti-Flag detected; also called Nb bFGF) VHH: LQESGGDLVQPGGSLRLSCEVSGSNFSINDMGWYRQAPGKRREVVAGISSVGRTMYADPVKGRFTISRDNAKNMVYLQMNRLKPEDTAVYYCHLYGDYRGTGFWGKGTQVTVSS |  |
